According to US20020147129A1:
Where no end group is shown, it is not given here.

B1: angiotensin IV (peptide)
peptide: VYIHPF
modifications: also: same id also used for [125I]Ang IV tracer, radioiodinated with chloramine T

Assays:
[1] = biological target: angiotensin AT4 receptor of Macaca fascicularis brain (Macaca fascicularis); test: competition for [125I]Ang IV binding, monkey prefrontal cortical sections
[2] = biological target: AT4 receptor of sheep central nervous system (sheep); test: competition for 125I-LVV-haemorphin-7 binding, sheep cerebellar cortical membranes
[3] = biological target: embryonic chicken AT4 receptor (chicken); test: competition for [125I]Ang IV binding, E13 chicken chorioallantoic membranes
Sequence of embryonic chicken AT4 receptor (chicken) (F1NNE7 entry or part of it): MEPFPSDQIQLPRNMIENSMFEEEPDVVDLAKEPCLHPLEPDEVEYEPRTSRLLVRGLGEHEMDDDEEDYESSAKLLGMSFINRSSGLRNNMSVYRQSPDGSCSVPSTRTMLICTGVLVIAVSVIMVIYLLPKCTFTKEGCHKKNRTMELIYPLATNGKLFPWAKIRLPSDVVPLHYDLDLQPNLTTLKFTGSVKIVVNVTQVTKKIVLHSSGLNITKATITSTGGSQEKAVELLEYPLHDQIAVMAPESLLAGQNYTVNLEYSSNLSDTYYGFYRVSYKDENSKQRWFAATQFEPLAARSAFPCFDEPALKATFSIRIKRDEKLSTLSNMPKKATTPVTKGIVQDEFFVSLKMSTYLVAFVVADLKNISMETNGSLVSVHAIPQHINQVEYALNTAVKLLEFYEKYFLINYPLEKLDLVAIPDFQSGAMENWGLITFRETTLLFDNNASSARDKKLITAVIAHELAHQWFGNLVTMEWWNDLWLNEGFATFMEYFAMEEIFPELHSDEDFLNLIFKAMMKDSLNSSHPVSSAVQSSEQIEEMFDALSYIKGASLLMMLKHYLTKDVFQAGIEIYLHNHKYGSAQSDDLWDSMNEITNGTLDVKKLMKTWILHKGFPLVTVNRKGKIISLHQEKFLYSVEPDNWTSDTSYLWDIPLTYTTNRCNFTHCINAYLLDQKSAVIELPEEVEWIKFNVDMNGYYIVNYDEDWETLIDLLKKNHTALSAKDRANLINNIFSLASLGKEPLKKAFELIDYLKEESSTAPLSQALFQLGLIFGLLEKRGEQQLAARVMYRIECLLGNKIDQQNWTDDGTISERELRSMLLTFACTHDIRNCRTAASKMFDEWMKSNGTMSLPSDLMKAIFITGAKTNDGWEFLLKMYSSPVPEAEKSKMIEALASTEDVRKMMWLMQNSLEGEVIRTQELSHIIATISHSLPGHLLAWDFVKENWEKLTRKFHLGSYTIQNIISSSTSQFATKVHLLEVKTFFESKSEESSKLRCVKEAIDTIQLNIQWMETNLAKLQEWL

[4] = biological target: AT4 receptor of bovine adrenal membranes (bovine); test: competition for 125I-Ang IV binding, bovine adrenal membranes
[5] = biological target: embryonic chicken Ang II receptor (chicken); test: competition for 125I[Sar1Ile8]Ang II binding, E13 chicken chorioallantoic membranes
Sequence of embryonic chicken Ang II receptor (chicken) (P79785 whole entry): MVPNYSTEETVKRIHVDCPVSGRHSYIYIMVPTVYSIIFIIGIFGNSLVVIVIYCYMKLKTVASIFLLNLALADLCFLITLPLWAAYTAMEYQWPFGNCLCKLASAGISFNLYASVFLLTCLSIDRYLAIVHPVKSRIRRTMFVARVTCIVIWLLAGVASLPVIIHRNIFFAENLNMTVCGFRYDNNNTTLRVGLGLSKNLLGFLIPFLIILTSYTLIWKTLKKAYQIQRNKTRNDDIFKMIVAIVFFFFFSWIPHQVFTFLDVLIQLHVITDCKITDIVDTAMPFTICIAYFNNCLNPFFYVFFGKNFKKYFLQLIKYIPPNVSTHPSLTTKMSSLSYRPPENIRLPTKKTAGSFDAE

[6] = biological target: AT4 receptor of sheep central nervous system (sheep); test: competition for [125I]Ang IV binding, sheep cerebellar cortical membranes
[7] = biological target: embryonic chicken AT4 receptor (chicken); test: cell-based or functional assay

| Binder | IC50 [1] | IC50 [2] | IC50 [3] | affinity in competing for ^125I-Ang IV binding [4] | IC50 [5] | IC50 [6] | inhibition of neurite outgrowth from E11 chicken sympathetic neurons: half maximal inhibition [7] | inhibition of neurite outgrowth from E11 chicken sympathetic neurons: maximal effect [7] | inhibition of neurite outgrowth from E11 chicken sympathetic neurons: threshold [7] |
| --- | --- | --- | --- | --- | --- | --- | --- | --- | --- |
| B1 | 5 nM | 1 nM | 18 nM | 1 to 5 nM | 50000 nM | 1.13 nM | 100 pM | 1 nM | 10 pM |
| LVVYPWTQRF [LVV-haemorphin-7] |  | 5.6 nM |  | 1 to 5 nM |  | 2 nM |  |  |  |
